Assay [1] addresses T1, rKv4.3N (Rattus norvegicus, UniProt Q62897).
T1 construct: expressed in transfected cells; host or cells: yeast HF7c (bait), mated with Y187 (fish)
T1 sequence (Q62897 1-180): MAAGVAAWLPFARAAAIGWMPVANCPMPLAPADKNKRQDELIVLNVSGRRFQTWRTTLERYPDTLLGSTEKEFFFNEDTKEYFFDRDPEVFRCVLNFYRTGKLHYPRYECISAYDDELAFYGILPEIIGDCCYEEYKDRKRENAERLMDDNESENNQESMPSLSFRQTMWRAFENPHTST
In words: Yeast two-hybrid binding and specificity test, Kv4.3 N-terminal bait. The note with it: for preference between rKv4.3N and rKv4.2N in yeast two-hybrid assay: rKv4.3N versus rKv4.2N. The procedure:
The first 180 amino acids of rKv4.3 (described in Serdio P. et al. (1996) J. Neurophys 75:2174-2179) were amplified by PCR and cloned in frame into pGBT9 resulting in plasmid pFWA2, (hereinafter “bait”). This bait was transformed into the two-hybrid screening strain HF7c and tested for expression and self-activation. The bait was validated for expression by Western blotting.
(§1) Two-hybrid screens were carried out essentially as described in Bartel, P. et al. (1993) “Using the Two-Hybrid System to Detect Polypeptide-Polypeptide Interactions” in Cellular Interactions in Development: A Practical Approach, Hartley, D. A. ed. Oxford University Press, Oxford, pp. 153-179, with a bait-library pair of rkv4.3 bait-rat mid brain library. A filter disk beta-galactosidase (beta-gal) assay was performed essentially as previously described (Brill et al. (1994) Mol. Biol. Cell. 5:297-312). Clones that were positive for both reporter gene activity (His and beta-galactosidase) were scored and fish, plasmids were isolated from yeast, transformed into E. coli strain KC8, DNA plasmids were purified and the resulting plasmids were sequenced by conventional methods (Sanger F. et al. (1977) PNAS, 74: 5463-67).
(§2) Positive interactor clones were subjected to a binding specificity test where they were exposed to a panel of related and unrelated baits by a mating scheme previously described (Finley R. L. Jr. et al. (1994) PNAS, 91(26):12980-12984). Briefly, positive fish plasmids were transformed into Y187 and the panel of baits were transformed into HF7c. Transformed fish and bait cells were streaked out as stripes on selective medium plates, mated on YPAD plates, and tested for reporter gene activity.

Assay [2] addresses T2, rKv1.1N (Rattus norvegicus, UniProt P10499).
T2 construct: expressed in transfected cells; host or cells: yeast HF7c (baits), mated with Y187 (fish)
Kind of assay: Yeast two-hybrid binding and specificity test, Kv1.1 N-terminal bait. How it is done:
as §1, §2

Assay [3] addresses T3, rKv4.2N (Rattus norvegicus, UniProt Q63881).
T3 construct: the N-terminal domains of Kv4.3, Kv4.2 were expressed as “baits” (Kv4.3N, Kv4.2N, respectively); expressed in transfected cells; host or cells: yeast HF7c (baits), mated with Y187 (fish)
T3 sequence (Q63881 1-184 limits assumed): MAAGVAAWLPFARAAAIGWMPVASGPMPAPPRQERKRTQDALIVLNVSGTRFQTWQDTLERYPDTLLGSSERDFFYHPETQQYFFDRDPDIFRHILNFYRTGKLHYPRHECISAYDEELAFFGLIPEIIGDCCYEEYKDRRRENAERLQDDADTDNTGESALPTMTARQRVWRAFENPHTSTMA
In words: Yeast two-hybrid binding and specificity test, Kv4.2 N-terminal bait. How it is done: as §1, §2

In assay [4] the target is T4, rKv4.2 (Rattus norvegicus, UniProt Q63881).
T4 construct: expressed in transfected cells; host or cells: CHO cells, transient transfection with GFP co-transfected
T4 sequence (Q63881 1-630): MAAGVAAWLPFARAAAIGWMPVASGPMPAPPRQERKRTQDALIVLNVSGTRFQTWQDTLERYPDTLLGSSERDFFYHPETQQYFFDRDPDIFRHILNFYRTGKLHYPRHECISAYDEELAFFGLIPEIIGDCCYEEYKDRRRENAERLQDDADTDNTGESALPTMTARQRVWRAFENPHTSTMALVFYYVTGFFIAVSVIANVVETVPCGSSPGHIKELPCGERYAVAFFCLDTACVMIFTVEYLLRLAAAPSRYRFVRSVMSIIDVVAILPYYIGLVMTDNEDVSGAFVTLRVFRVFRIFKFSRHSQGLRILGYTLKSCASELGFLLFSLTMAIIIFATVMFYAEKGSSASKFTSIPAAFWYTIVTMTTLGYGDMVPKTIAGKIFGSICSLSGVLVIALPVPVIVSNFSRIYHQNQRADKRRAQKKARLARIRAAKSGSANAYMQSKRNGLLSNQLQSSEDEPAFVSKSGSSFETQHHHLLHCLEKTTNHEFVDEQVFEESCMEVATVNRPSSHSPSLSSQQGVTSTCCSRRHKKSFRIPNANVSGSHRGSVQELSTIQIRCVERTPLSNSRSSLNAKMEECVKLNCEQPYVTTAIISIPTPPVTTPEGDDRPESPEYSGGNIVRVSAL
Kind of assay: Patch-clamp of Kv4.2 currents in CHO cells coexpressing KChIPs. The assay is classed as cell-based. The procedure:
HEK 293 and CHO cells were used for recordings 1-3 days after a transient transfection. Whole-cell currents were recorded from cells expressing GFP, identified by their green fluorescence. […] After Gigaseal and ruptured whole-cell configuration access, resistance was less than 10 MOhms. Whole-cell bath solutions were made from a 10× Hank's balanced salt solution (GibcoBRL) with the following final concentration (in mM): 138 NaCl, 5.4 KCl, 1.3 MgCl2, 1.3 CaCl2, 5.5 D-Glukos and 10 HEPES, pH 7.4. The intracellular electrode solution consisted of (in mM) 140 KCl, 10 HEPES, 10 EGTA, 0.5 MgCl2, pH 7.3. All chemicals were from Sigma (St. Louis, Mo.) or Fisher Scientific (Houston, Tex.). Membrane currents were recorded using a EPC9 patch-clamp amplifier (HEKA, Germany). Data were analyzed using Matlab (Natick, Ma), and leak subtracted if necessary. All experiments were done at room temperature.
Because PCIPs, e.g., KChIP1 (1v), KChIP2 (9ql), and KChIP3 (p19), colocalize and coassociate with Kv4 α-subunits in brain, another critical question was to determine whether these PCIPs alter the conductance properties of Kv4 channels. To address this issue, Kv4.2 and Kv4.3 were expressed alone and in combination with individual PCIPs. CHO cells were transiently-transfected with cDNA using the DOTAP lipofection method as described by the manufacturer (Boehringer Mannheim, Inc.). Transfected cells were identified by cotransfecting enhanced GFP along with the genes of interest and subsequently determining if the cells contained green GFP fluorescence. Currents in CHO cells were measured using the patch-clamp technique (Hamill et al. 1981. Pfluegers Arch. 391: 85-100).
First, the amplitude of the Kv4.2 current increased approximately 7.5 fold in the presence of KChIP1 (amplitude of Kv4.2 alone=0.60+/−0.096 nA/cell; Kv4.2+KChIP1=4.5+/−0.55 nA/cell). […] Finally, the kinetics of Kv4.2 inactivation slowed considerably when Kv4.2 was coexpressed with KChIP1 (inactivation time constant of Kv4.2 alone=28.2+/−2.6 ms; Kv4.2+KChIP1=104.1+/−10.4 ms), while channels recovered from inactivation much more rapidly in cells expressing both Kv4.2 and KChIP1 (recovery tau=53.6+/−7.6 ms) versus cells expressing Kv4.2 alone (recovery tau=272.2+/−26.1 ms).
On the technique in general: The patch-clamp technique gives a direct electrical read-out from membranes.

Results on six molecules are retold here after patent publication US7556938B1, “Nucleic acids encoding potassium channel interactors” (Millennium Pharmaceuticals, Inc., priority 1998, dated 2009).

T2 sequence (P10499 1-164 limits assumed): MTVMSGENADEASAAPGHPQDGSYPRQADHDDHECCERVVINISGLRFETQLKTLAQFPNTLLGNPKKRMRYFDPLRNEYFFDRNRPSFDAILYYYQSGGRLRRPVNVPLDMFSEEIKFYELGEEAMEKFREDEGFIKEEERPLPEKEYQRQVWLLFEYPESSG

B1: Rat 1p: partial rat PCIP of 267 amino acid residues, similar to human Restin (protein)
chain: LKGARPRVVNSTCSDFNHGSALHIAASNLCLGAAKCLLEHGANPALRNRKGQVPAEVVPDPMDMSLDKAEAALVAKELRTLLEEAVPLSCTLPKVTLPNYDNVPGNLMLSALGLRLGDRVLLDGQKTGTLRFCGTTEFASGQWVGVELDEPEGKNDGSVGGVRYFICPPKQGLFASVSKVSKAVDAPPSSVTSTPRTPRMDFSRVTGKGRREHKGKKKSPSSPSLGSLQQREGAKAEVGDQVLVAGQNRDCAFLWEDRLCSRLLVWH
As to B1, in assay [1], the “binding to rKv4.3N in yeast two-hybrid assay” value (shortened to “binding to rKv4.3N”) is on record as “binds”; the “preference between rKv4.3N and rKv4.2N in yeast two-hybrid assay” value (from here on “preference between rKv4.3N and rKv4.2N”) is recorded as “slight preference for rKv4.3N”. Besides, the “binding to rKv1.1N in yeast two-hybrid assay” value (“binding to rKv1.1N” below) in assay [2] is “does not bind”. Also, the “binding to rKv4.2N in yeast two-hybrid assay” value (“binding to rKv4.2N” below) in assay [3] was “binds”.

B2: KChIP1 ΔN2-31: N-terminal truncation mutant of KChIP1, reduced to the C-terminal 185 amino acid core sequence (protein)
chain: MLCSSLKLLHYLGLIDLSDDKIEDDLEMTMVCHRPEGLEQLEAQTNFTKRELQVLYRGFKNECPSGVVNEETFKQIYAQFFPHGDASTYAHYLFNAFDTTQTGSVKFEDFVTALSILLRGTVHEKLRWTFNLYDINKDGYINKEEMMDIVKAIYDMMGKYTYPVLKEDTPRQHVDVFFQKMDKNKD
On to B2, for which the “effects on Kv4.2 current density and kinetics” value in assay [4] (coexpressed with Kv4.2) is “indistinguishable from the effects produced by full-length KChIP1 or KChIP2”. In assay [4] (rKv4.2 coexpressed with the KChIP, at 50 mV), the “Inactivation time constant (ms, at 50 mV)” value was 129.2 ± 14.2 ms.

B3: Rat 7s: rat ortholog of the human vacuolar H(+)-ATPase catalytic subunit A (partial) (protein)
chain: ADSTSRWAEALREISGRLAEMPADSGYPAYLGARLASFYERAGRVKCLGNPEREGSVSIVGAVSPPGGDFSDPVTSATLGIVQVFWGLDKKLAQRKHFPSVNWLISYSKYMRALDEYYDKHFTEFVPLRTKAKEILQEEEDLAEIVQLVGKASLAETDKITLEVAKLIKDDFLQQNGYTPYDRFCPFYKTVGMLSNMISFYDMARRAVETTAQSDNKITWSIIREHMGEILYKLSSMKFKDPVKDGEAKIKADYAQLLEDMQNAFRSLED
B3: in assay [1], the “binding to rKv4.3N” value is listed as “binds”; the “preference between rKv4.3N and rKv4.2N” value is reported as “preference for rKv4.3N”. In addition, the “binding to rKv1.1N” value in assay [2] is “does not bind”. For the same molecule, the “binding to rKv4.2N” value in assay [3] was “binds”.

B4: Rat 33b07: PCIP of 407 amino acid residues, homologous to SET and Nucleosome Assembly Proteins (protein)
chain: MNGVEGNNELPLANTSTSALVPEDLDLKQDQPLSEETDTVREMEAAGEAGAEGGASPDSEHCDPQLCLRVAENGCAAAAGEGLEDGLSSSKCGDAPLASVAANDSNKNGCQLAGPLSPAKPKTLEASGAVGLGSQMMPGPKKTKVMTTKGAISATTGKEGEAGAAMQEKKGVQKEKKAAGGGKDETRPRAPKINNCMDSLEAIDQELSNVNAQADRAFLQLERKFGRMRRLHMQRRSFIIQNIPGFWVTAFRNHPQLSPMISGQDEDMMRYMINLEVEELKHPRAGCKFKFIFQSNPYFRNEGLVKEYERRSSGRVVSLSTPIRWHRGQEPQAHIHRNREGNTIPSFFNWFSDHSLLEFDRIAEIIKGELWSNPLQYYLMGDGPRRGVRVPPRQPVESPRSFRFQSG
On to B4, for which, in assay [1], the “binding to rKv4.3N” value was “binds”; the “preference between rKv4.3N and rKv4.2N” value is listed as “slight preference for rKv4.2N”. In addition, the “binding to rKv1.1N” value in assay [2] is “does not bind”. The “binding to rKv4.2N” value in assay [3] was “binds”.

B5: Rat 29x: identical at the amino acid level to rat SOCS-1 (Suppressor Of Cytokine Signaling) (protein)
chain: ARLPAPEHARQQPLLSGPEPGSSARVPVPGVASRRQPRGGKPPSGDGLESGPSPRPLLHARGEAGLHRQSGRVPHTGTAYFADEPTEAQAPGGFCVSPSLLGVRWPACATRTPGSLPLSPPSAQPRTLWPTPPAGPSSRMVARNQVAADNAISPASEPRRRPEPSSSSSSSSPAAPARPRPCPVVPAPAPGDTHFRTFRSHSDYRRITRTSALLDACGFYWGPLSVHGAHERLRAEPVGTFLVRDSRQRNCFFALSVKMASGPTSIRVHFQAGRFHLDGSRETFDCLFELLEHYVAAPRRMLGAPLRQRRVRPLQELCRQRIVAAVGRENLARIPLNPVLRDYLSSFPFQI
Consider B5, for which, in assay [1], the “binding to rKv4.3N” value was “binds”; the “preference between rKv4.3N and rKv4.2N” value is given as “slight preference for rKv4.3N”. The “binding to rKv1.1N” value in assay [2] is recorded as “does not bind”. The “binding to rKv4.2N” value in assay [3] is “binds”.

B6: Rat 5p: identical to rat Calpactin I light chain or P10 (protein)
chain: MPSQMEHAMETMMLTFHRFAGEKNYLTKEDLRVLMEREFPGFLENQKDPLAVDKIMKDLDQCRDGKVGFQSFLSLVAGLIIACNDYFVVHMKQKK
On to B6, for which the “binding to rKv4.3N” value in assay [1] is “binds”. Also, the “binding to rKv1.1N” value in assay [2] was “does not bind”. In addition, the “binding to rKv4.2N” value in assay [3] is reported as “binds”.
